Common to all, as to assay: cell-based or functional assay
The target of assay [1] is CSF-1R on cynomolgous monocytes (cynomolgous).
Assay [2] has as its target human mutant CSF-1R L301S Y969F, full-length, on NIH 3T3 cells (human) (UniProt P07333).
The target of assay [3] is human wildtype CSF-1R (wt CSF-1R), full-length, on cells (human) (UniProt P07333).

A value given as a limit tells only on which side of the number the result lay.

As usually defined, the % inhibition is how much of the control response was suppressed. Higher therefore signals a response far below the control.

In assay [1], “Anti CSF-1R SC 2-4A5 (Santa Cruz Biotechnology, US) (antibody)” returned a % inhibition (of survival) = (100% - % survival), cynomolgous monocytes, 5 µg/ml antibody of 69% and a % survival of cynomolgous monocytes at 5 µg/ml antibody (150 ng/ml huCSF-1, CellTiterGlo) of 31%. In assay [2], this substance returned a Mutant CSF-1R IC30 (cell viability, CellTiterGlo, 3D spheroids) of 2.56 µg/mL and a Mutant CSF-1R IC50 (cell viability, CellTiterGlo, 3D spheroids) of 10 µg/mL. Further, in assay [3], the wtCSF-1R IC30 (cell viability, CellTiterGlo, 3D spheroids) is 16.6 µg/mL and the wtCSF-1R IC50 (cell viability, CellTiterGlo, 3D spheroids) amounted to 10 µg/mL.

In assay [2], “goat polyclonal anti-CSF-1R antibody ab10676 (abcam)” displayed a % inhibition at 20 µg/ml, mutant CSF-1R cells of 0% and a Mutant CSF-1R IC30 (cell viability, CellTiterGlo, 3D spheroids) above 20 µg/mL. Besides, the wtCSF-1R IC30 (cell viability, CellTiterGlo, 3D spheroids) in assay [3] was 14.2 µg/mL.
